{
  "source": "paper PMC11434081",
  "about": "“Cross-Effects in Folding and Phase Transitions of hnRNP A1 and C9Orf72 RNA G4 In Vitro” (Molecules, 2024)",
  "target": "the molecule itself",
  "assay": "thioflavin T fluorescence (fibrillation assay); self-association of the peptide into cross-beta fibrils; 40 µM peptide, 13 µM ThT, 0.5 mM DTT, 40 mM HEPES-KOH pH 7.4, 150 mM KCl or NaCl (methods), room temperature (RGG-PLD^mut-NLS also at 37 °C), at least 3 h",
  "data": [
    {"protein": "RGG-PLD^mut-NLS (hnRNP A1 aa 218–272, D262V) (hnRNP A1, human, residues 218-272 with D262V; Synthesised on an amide resin, so the C-terminus may be amidated; source: synthetic peptide (Fmoc solid phase, RP-HPLC purified)) peptide: RGGNFSGRGGFGGSRGGGGYGGSGDGYNGFGNDGSNFGGGGSYNVFGNYNNQSSN", "values": [
      {"measurement": "reduction of the ThT signal relative to PLD^mut-NLS", "value": "30 ± 10", "unit": "%"}
    ]},
    {"protein": "RGG-PLD^wt-NLS (hnRNP A1 aa 218–272, wild type) (hnRNP A1, human, residues 218-272, wild type; Synthesised on an amide resin, so the C-terminus may be amidated; source: synthetic peptide (Fmoc solid phase, RP-HPLC purified)) peptide: RGGNFSGRGGFGGSRGGGGYGGSGDGYNGFGNDGSNFGGGGSYNDFGNYNNQSSN", "values": [
      {"measurement": "fold lower fibrillation (ThT) than RGG-PLD^mut-NLS", "value": "~2", "unit": "fold"}
    ]},
    {"protein": "GGGYGGSGDGYNGFGNDGSNFGGGGSYNVFGNYNNQSSN (hnRNP A1, human, residues 234-272 with D262V; Synthesised on an amide resin, so the C-terminus may be amidated; source: synthetic peptide (Fmoc solid phase, RP-HPLC purified))", "note": "[PLD^mut-NLS (hnRNP A1 aa 234–272, D262V)]", "values": [
      {"measurement": "binding result", "value": "binds"}
    ]}
  ]
}
